Test results: US20250051425A1 (YALE UNIVERSITY, published 2025)

Columns and labels:
[1] = biological target: T1, Influenza A H1N1 (A/Puerto Rico/8/1934) Hemagglutinin/HA Protein (ECD, His Tag) (Influenza A H1N1 (A/Puerto Rico/8/1934), UniProt P03452 18-528); assay: ELISA, coated antigen
T1 construct: extracellular domain; Bought; also called influenza A/PR8 (H1N1) hemagglutinin (HA); H1N1 HA

SARS S1 protein, His Tag = biological target: T2, SARS S1 protein, His Tag (SARS-CoV-1, UniProt P59594 14-667); assay: ELISA, coated antigen, mAb 3 µg/mL
T2 construct: domain: S1; also called recombinant severe acute respiratory syndrome coronavirus 1 (SARS-CoV-1) spike protein

T1 sequence (P03452 18-528): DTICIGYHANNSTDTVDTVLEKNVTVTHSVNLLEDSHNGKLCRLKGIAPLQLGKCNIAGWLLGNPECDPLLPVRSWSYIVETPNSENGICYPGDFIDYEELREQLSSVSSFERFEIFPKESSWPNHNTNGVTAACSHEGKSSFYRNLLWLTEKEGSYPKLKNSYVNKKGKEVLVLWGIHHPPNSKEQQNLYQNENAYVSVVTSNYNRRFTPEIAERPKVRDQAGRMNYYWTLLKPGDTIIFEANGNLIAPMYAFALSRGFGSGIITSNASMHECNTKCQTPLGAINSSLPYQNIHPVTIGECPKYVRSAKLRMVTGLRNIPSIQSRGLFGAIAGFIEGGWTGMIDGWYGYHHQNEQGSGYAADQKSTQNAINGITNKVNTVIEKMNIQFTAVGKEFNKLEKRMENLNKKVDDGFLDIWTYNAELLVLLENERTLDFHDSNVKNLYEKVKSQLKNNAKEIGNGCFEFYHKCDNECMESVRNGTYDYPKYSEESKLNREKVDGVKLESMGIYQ

B1: IGHV6-3 monoclonal antibody (mouse IgG2c, Ig kappa) (antibody, V domains shown)
VH: EVKLEESGGGLVQPGGSMKLSCVASGFTFSNYWMNWVRQSPEKGLEWVAQIRLKSDNYATHYAESVKGRFTISRDDSKSSVYLQMNNLRAEDTGIYYCTDITGPIDYWGQGTTLTVSS
VL: DIKMTQSPSSMYASLGERVTITCKASQDINSYLSWFQQKPGKSPKTLIYRANRLVDGVPSRFSGSGSGQDYSLTISSLEYEDMGIYYCLQYDEFPYTFGGGTKLEIK
notes: also called IGHV6-3 mAb; Mouse IGHV6-3 mAb, g2c
binding result [1]: binds
binding result (SARS S1 protein, His Tag): binds
